Target: 4-1BB receptor on Jurkat cells that over express 4-1BB/NFκB/Luc (UniProt Q07011)
Assay: cell-based or functional assay

Chain of UniProt Q07011 (Q07011 24-255 limits assumed): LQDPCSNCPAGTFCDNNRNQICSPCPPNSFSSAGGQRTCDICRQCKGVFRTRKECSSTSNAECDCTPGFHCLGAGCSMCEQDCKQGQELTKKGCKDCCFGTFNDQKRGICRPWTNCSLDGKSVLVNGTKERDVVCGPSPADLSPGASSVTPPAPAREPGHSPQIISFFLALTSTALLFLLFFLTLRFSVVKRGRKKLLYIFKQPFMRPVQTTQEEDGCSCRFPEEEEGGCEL

NFκB activation (luciferase activity of Jurkat cells that over express 4-1BB/NFκB/Luc): 80 to 100 fold
NFκB activation relative to the agonistic 4-1BB monoclonal antibody: 15 fold
Substance: 4-1BBL construct (human extracellular 4-1BBL - 4-1BBL linker - GPA) on the surface of engineered erythroid cells (ligand)

— patent publication US20190298769A1
